Data published in patent EP3783015A1 (Beijing DCTY Biotech Co., Ltd., dated 2021).

Target: T1, ErbB2-Domain4 protein (human, UniProt P04626 1-675)
T1 construct: Made in E. coli BL21(DE3) from pET-28a (NdeI/XhoI), dissolved from inclusion bodies in 8 M urea and purified on a Ni column; also called ErbB2-Domain4-encoded protein
Assay: indirect ELISA, ErbB2-Domain4 protein coated at 100 ng/well, antibody in serial dilution, A450

EC50: 100 nM
B1: mouse anti-human ErbB2 monoclonal antibody 10A6 (antibody, mouse IgG1, kappa, V domains shown)
VH: QVTLKESGPGILQPSQTLSLTCSFSGFSLSTSGMGVSWIRQPSGKGLEWLAHIYWDDDKRYNPSLKSRLTISKDSSNKQVFLKFTSVDTADTATYYCAHFAYYNYDGAVDSWGQGTSVTVSS
VL: DIVMSQSPSSLTVSAGEKVSMSCKSSQSLLHSRTRKNYLAWYQQKPGQSPKLLIYWASTRESGVPDRFTGSGSGTDFTLTISSVQAEDLAVYYCKQSYSLYTFGGGTKLEIKR
notes: Mouse IgG1-Kappa, purified from hybridoma supernatant on protein G; also called 10A6 clonal antibody protein
